The target in the test is T1, recombinant human perlecan domain 1 proteoglycan rhPln.247 (human, UniProt P98160 22-247, heparan sulfate and chondroitin sulfate glycosaminoglycan chains (CS:HS ratio of approximately 2:1); attachment residues not given).
T1 construct: signal peptide in the construct; The secreted product has probably lost the signal peptide; also called rhPln.D1; rPlnD1; source: HEK 293 cells, adenoviral expression system, purified
As to the kind of experiment: ELISA; rhPln.247 coated directly on polystyrene microtiter wells overnight at 4°C in PBS/N3 at about 1-2 ug/ml; rhBMP-2 or rhBMP-7 serially diluted; retained BMP detected with biotinylated anti-BMP antibodies; background without rhPln.247 subtracted; apparent Kd. The following applies: both partners purified. A general note: An ELISA detects its analyte on a solid surface through an enzyme-linked reagent.

T1 sequence (P98160 22-247): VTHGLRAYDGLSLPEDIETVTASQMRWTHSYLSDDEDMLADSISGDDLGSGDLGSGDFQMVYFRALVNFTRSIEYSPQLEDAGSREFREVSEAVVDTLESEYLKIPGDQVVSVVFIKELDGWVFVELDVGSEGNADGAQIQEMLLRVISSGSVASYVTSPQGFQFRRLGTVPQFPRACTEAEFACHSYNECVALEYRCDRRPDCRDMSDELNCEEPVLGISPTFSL

B1: recombinant human bone morphogenetic protein-7 (ligand)
chain: STGSKQRSQNRSKTPKNQEALRMANVAENSSSDQRQACKKHELYVSFRDLGWQDWIIAPEGYAAYYCEGECAFPLNSYMNATNHAIVQTLVHFINPETVPKPCCAPTQLNAISVLYFDDSSNVILKKYRNMVVRACGCH
notes: bone morphogenetic protein 7, human, recombinant; also called rhBMP-7; rBMP-7; source: bought: R&D Systems
As for B1, the “fold by which rhBMP-2 binds more tightly than rhBMP-7” value is about 10 fold.

These data come from paper PMC3485628, “Perlecan domain 1 recombinant proteoglycan augments BMP-2 activity and osteogenesis” (BMC Biotechnology, 2012).
